The text below walks through data of US20190185516A1 (YISSUM RESEARCH DEVELOPMENT COMPANY OF THE HEBREW …, published 2019).

Numbered stars: 1 amine (or outer) side, 2 acyl side, 3 side chain; on linkers, the order of the positions; unused ones are H or OH. Bridge positions count the residues as written; N and C are the ends. Square brackets hold non-standard residues; d marks the D form. Ends that are not written are not given here. CO = O=C([*:1])[*:2]; Nlys = NCCCCNCC(=O)O

The assay addresses MyD88, endogenous, in human cell lines (HeLa, U937, THP-1) (human, UniProt Q99836 1-296). The assay is described as follows: cell-based or functional assay.

MyD88, endogenous, in human cell lines (HeLa, U937, THP-1), sequence (Q99836 whole entry): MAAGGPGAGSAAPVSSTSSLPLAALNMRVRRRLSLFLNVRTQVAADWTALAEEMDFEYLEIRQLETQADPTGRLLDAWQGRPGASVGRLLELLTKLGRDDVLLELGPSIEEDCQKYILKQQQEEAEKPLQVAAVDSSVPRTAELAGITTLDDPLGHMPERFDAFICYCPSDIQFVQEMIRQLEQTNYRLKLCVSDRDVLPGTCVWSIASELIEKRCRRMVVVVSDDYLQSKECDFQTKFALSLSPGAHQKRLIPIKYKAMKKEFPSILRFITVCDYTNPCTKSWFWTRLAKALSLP

B1: backbone cyclic peptide 4×4MyDI (Formula IV, m=4, n=4, Z=Trp) (peptide)
peptide: W[Nlys]RDVL[Nlys]GT
modifications: bridge 2-7 via CO; also: backbone cyclization: two amine-terminated 4-methylene arms on Gly2 and Gly7 joined by a urea bond
As to B1, the “Percent p65 nuclear translocation in HeLa cells, IL-1β” value (“Percent p65 nuclear translocation” for short) stood at 27%.

As for RDVLPGT [MyD88 inhibitor linear peptide RDVLPGT], the “Percent p65 nuclear translocation” value worked out at 20%.

PTDLVRG [scrambled version of the linear MyD88 inhibitor peptide (PTDLVRG)]: the “Percent p65 nuclear translocation” value is 91%.
